Data published in PMC3265493, “Inhibitory Potential of Prodomain of Plasmodium falciparum Protease Serine Repeat Antigen 5 for Asexual Blood Stages of Parasite” (PLoS ONE, 2012).

Biological target: T1, SERA5 catalytic domain (SERA5 C) (Plasmodium falciparum 3D7, UniProt Q9TY95 578-828)
T1 construct: Plasmodium falciparum 3D7 serine repeat antigen 5 (SERA5), PlasmoDB PFB0340c, 251-residue enzyme (catalytic) domain E578 to N828, amplified from cDNA; Cloned in pProExHTb between BamHI and XhoI with N-terminal hexahistidine tag; no tag removal is described; also called enzyme domain
T1 sequence: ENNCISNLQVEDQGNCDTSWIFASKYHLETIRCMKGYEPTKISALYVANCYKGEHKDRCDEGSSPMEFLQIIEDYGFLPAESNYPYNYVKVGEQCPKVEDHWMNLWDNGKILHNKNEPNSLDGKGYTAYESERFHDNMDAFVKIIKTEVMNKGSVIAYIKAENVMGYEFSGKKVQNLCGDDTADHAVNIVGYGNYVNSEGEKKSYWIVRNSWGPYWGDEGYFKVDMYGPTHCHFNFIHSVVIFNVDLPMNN
Test: CD spectroscopy; CD spectra of SERA5 C (5 uM) in PBS pH 7.4 alone and with 5 uM peptide (1:1 molar ratio), 25 C
Conditions: both partners purified

B1: heptapeptide DNSDNMF (D560 to F566 of SERA5 sequence) (peptide)
peptide: DNSDNMF
notes: C-terminal region of the prodomain of Plasmodium falciparum serine repeat antigen 5 (SERA5), residues D560 to F566; Made on Rink amide resin, so the C-terminus is probably an amide; also called the heptapeptide; the peptide; source: synthetic peptide (solid phase, Fmoc chemistry, Rink Amide MHBA resin; RP-HPLC purified)
  binding result: binds
